Laboratory results taken from patent US20100041597A1, “PEPTIDES TARGETED TO PROTEIN KINASE C ISOFORMS AND USES THEREOF” (priority 2005, published 2010).

Tests used:
[1] = target: PKC-βI (purified isoform) (Homo sapiens (Human)) (UniProt P05771); assay: competitive ELISA on purified PKC-βI vs anti-PKC-βI Ab; PRE 50 µM
[2] = target: PKC-βI (purified isoform) (Homo sapiens (Human)) (UniProt P05771); assay: competitive ELISA on purified PKC-βI vs anti-PKC-βI Ab; PRE 100 µM
[3] = target: PKC-βI (purified isoform) (Homo sapiens (Human)) (UniProt P05771); assay: competitive ELISA on purified PKC-βI vs anti-PKC-βI Ab; PRE 200 µM
[4] = target: PKC-βII (purified isoform) (Homo sapiens (Human)) (UniProt P05771); assay: competitive ELISA on purified PKC-βII vs anti-PKC-βII Ab; PRE 50 µM
Sequence of PKC-βII (purified isoform) (Homo sapiens (Human)) (P05771 other isoform, or with tags, fused parts or gaps limits assumed): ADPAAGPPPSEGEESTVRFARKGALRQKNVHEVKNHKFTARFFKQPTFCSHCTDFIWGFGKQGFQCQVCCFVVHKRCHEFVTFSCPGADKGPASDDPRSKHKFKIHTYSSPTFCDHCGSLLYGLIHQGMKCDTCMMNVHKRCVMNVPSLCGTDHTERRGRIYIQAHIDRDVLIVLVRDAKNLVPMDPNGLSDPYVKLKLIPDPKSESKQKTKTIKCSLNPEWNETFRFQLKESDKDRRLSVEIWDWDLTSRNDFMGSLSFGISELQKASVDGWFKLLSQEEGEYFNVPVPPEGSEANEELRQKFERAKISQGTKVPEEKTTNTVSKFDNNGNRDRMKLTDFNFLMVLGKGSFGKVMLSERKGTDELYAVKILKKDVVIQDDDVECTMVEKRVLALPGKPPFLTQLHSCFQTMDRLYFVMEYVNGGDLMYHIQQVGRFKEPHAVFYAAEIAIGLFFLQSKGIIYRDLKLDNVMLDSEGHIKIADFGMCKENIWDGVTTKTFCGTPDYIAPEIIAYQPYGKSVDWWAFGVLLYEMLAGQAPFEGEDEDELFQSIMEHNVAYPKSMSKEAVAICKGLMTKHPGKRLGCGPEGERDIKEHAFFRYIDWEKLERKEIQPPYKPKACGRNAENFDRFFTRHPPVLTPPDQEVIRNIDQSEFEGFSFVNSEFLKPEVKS

[5] = target: PKC-βII (purified isoform) (Homo sapiens (Human)) (UniProt P05771); assay: competitive ELISA on purified PKC-βII vs anti-PKC-βII Ab; PRE 100 µM
[6] = target: PKC-βII (purified isoform) (Homo sapiens (Human)) (UniProt P05771); assay: competitive ELISA on purified PKC-βII vs anti-PKC-βII Ab; PRE 200 µM
[7] = target: PKC-δ (purified isoform) (Homo sapiens (Human)) (UniProt Q05655); assay: competitive ELISA on purified PKC-δ vs anti-PKC-δ Ab; PRE 50 µM
Sequence of PKC-δ (purified isoform) (Homo sapiens (Human)) (Q05655 whole entry, stated change not applied, canonical isoform): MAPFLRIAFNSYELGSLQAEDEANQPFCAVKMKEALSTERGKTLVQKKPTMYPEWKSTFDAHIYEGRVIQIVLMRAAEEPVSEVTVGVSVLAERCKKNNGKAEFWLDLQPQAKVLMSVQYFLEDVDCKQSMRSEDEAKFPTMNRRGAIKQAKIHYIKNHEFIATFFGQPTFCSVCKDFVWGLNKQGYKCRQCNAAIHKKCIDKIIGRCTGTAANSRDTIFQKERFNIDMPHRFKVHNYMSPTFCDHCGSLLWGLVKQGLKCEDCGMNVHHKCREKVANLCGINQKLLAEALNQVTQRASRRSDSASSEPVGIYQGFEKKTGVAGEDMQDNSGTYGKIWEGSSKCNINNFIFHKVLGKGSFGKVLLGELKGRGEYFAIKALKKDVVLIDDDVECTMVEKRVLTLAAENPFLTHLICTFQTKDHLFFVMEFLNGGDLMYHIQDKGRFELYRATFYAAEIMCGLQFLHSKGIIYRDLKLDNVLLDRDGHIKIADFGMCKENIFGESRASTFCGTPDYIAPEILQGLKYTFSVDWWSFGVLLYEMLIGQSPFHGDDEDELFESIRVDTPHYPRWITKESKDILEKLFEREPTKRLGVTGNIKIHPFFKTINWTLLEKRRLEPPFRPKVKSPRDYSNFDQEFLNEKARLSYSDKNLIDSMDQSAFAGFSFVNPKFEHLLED

[8] = target: PKC-δ (purified isoform) (Homo sapiens (Human)) (UniProt Q05655); assay: competitive ELISA on purified PKC-δ vs anti-PKC-δ Ab; PRE 100 µM
[9] = target: PKC-δ (purified isoform) (Homo sapiens (Human)) (UniProt Q05655); assay: competitive ELISA on purified PKC-δ vs anti-PKC-δ Ab; PRE 200 µM
[10] = target: PKC-βI (purified isoform) (Homo sapiens (Human)), P05771; assay: competitive ELISA on purified PKC-βI vs anti-PKC-βI Ab; PRE 50 µM; settings: remark: other sources report otherwise
Sequence of PKC-βI (purified isoform) (Homo sapiens (Human)), P05771 (P05771 2-671 limits assumed): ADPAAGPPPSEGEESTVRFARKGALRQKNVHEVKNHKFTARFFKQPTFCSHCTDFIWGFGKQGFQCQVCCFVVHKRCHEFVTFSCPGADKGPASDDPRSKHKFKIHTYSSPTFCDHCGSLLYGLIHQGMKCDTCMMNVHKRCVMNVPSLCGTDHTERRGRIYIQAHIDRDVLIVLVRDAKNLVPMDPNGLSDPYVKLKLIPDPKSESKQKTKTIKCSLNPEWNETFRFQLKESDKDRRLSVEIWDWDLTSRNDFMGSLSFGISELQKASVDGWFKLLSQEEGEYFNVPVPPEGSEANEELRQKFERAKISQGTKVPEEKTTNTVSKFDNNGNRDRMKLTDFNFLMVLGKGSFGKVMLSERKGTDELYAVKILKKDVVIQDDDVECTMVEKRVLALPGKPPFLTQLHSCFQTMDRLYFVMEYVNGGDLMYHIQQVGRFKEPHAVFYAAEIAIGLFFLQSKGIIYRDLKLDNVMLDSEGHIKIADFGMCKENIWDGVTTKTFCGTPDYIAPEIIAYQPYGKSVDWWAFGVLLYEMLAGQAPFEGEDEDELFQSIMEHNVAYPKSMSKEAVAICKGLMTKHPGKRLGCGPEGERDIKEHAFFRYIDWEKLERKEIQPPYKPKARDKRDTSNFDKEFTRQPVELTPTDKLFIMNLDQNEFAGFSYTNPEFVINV

[11] = target: PKC-βI (purified isoform) (Homo sapiens (Human)), P05771; assay: competitive ELISA on purified PKC-βI vs anti-PKC-βI Ab; PRE 100 µM; settings: remark: other sources report otherwise
[12] = target: PKC-βI (purified isoform) (Homo sapiens (Human)), P05771; assay: competitive ELISA on purified PKC-βI vs anti-PKC-βI Ab; PRE 200 µM; settings: remark: other sources report otherwise
[13] = target: PKC-ε (purified isoform) (Homo sapiens (Human)) (UniProt Q02156); assay: competitive ELISA on purified PKC-ε vs anti-PKC-ε Ab; PRE 50 µM
Sequence of PKC-ε (purified isoform) (Homo sapiens (Human)) (Q02156 whole entry, canonical isoform): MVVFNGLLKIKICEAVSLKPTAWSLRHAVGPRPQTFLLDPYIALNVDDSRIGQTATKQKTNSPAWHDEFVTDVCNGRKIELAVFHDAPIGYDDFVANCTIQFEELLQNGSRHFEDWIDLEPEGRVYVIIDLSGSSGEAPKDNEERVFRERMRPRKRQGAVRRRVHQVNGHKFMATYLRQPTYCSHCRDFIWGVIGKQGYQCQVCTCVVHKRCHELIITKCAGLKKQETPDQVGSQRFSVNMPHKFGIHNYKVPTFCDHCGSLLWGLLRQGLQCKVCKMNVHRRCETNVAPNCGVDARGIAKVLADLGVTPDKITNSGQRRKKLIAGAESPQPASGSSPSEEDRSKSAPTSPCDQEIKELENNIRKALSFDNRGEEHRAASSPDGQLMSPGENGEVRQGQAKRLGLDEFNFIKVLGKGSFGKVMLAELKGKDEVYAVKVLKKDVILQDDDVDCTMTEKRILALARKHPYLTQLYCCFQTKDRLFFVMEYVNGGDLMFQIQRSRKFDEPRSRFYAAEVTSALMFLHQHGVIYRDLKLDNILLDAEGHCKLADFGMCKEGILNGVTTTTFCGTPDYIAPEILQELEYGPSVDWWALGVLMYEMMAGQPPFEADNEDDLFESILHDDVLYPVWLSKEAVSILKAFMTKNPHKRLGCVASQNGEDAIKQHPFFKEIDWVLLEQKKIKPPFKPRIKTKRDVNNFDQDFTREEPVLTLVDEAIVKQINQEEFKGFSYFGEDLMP

[14] = target: PKC-ε (purified isoform) (Homo sapiens (Human)) (UniProt Q02156); assay: competitive ELISA on purified PKC-ε vs anti-PKC-ε Ab; PRE 100 µM
[15] = target: PKC-ε (purified isoform) (Homo sapiens (Human)) (UniProt Q02156); assay: competitive ELISA on purified PKC-ε vs anti-PKC-ε Ab; PRE 200 µM

Sequence of PKC-βI (purified isoform) (Homo sapiens (Human)) (P05771 2-671 limits assumed): as the sequence (P05771 2-671 limits assumed) above

| Binder | binding capacity (%) [1] | binding capacity (%) [2] | binding capacity (%) [3] | binding capacity (%) [4] | binding capacity (%) [5] | binding capacity (%) [6] | further results |
| --- | --- | --- | --- | --- | --- | --- | --- |
| ILEDKGGDAQNLIGISI [PRE 8] |  |  |  |  |  |  | binding capacity (%) [10]: 0%; binding capacity (%) [11]: 0%; binding capacity (%) [12]: 0% |
| Ac-RDAQNLIGISI-NH2 [PRE 11] | 9.86% | 14.2% | 12.5% | 7.14% | 11% | 6.4% |  |
| RRKKGGKDFVVKR [PRE 1] |  |  |  |  |  |  | binding capacity (%) [13]: 19.8%; binding capacity (%) [14]: 5.47%; binding capacity (%) [15]: 0.83% |

More lines, main results first:

| binding capacity (%) [1] | binding capacity (%) [2] | binding capacity (%) [3] | binding capacity (%) [4] | binding capacity (%) [5] | binding capacity (%) [6] | Binder | further results |
| --- | --- | --- | --- | --- | --- | --- | --- |
| 0% | 0% | 0% |  |  |  | Ac-AKGIQEVKGGKDAQNLIGISI-NH2 [PRE 5] |  |
|  |  |  | 5.42% | 11.1% | 2.59% | Ac-ISIGILQNADK-NH2 [PRE 7] |  |
| 3.77% | 4.35% | 0% |  |  |  | Ac-ISIGILNQADK-NH2 [PRE 10] | binding capacity (%) [7]: 0%; binding capacity (%) [8]: 0%; binding capacity (%) [9]: 9.47% |
